US20210179726A1 (DINGFU BIOTARGET, published 2021)
Positions count from the first letter of the chain named. Each block holds one binder with its values, some of them ahead of it.

Legend:
[1] = target: T1, hGITR-EGFP on HEK293 cells (human, UniProt Q9Y5U5 26-241); test: FACS on hGITR-EGFP HEK293 cells
T1 construct: EGFP fusion expressed on transfected HEK293 cells; also called human GITR
T1 sequence (looked up): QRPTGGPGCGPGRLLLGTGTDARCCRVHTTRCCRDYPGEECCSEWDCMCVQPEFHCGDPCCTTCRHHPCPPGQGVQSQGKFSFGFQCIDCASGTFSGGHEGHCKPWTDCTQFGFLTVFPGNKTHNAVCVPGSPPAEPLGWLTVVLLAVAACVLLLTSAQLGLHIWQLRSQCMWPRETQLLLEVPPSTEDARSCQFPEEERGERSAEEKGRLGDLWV
Procedure: (§1) The hCD137-EGFP, hOX40-EGFP and hGITR-EGFP cells as described in Example 1 were washed twice in PBS, 10 μg/ml of each chimeric antibody as prepared in Example 3 (m2E7, m2B8, m4H3, m3E7, m1A8, m4G1, m2G3, m2F11 and m3B8) was added to each type of cells and incubated at 4° C. for 30 min. Then it was washed twice with PBS, anti-human Ig-APC (Jackson ImmunoResearch Laboratories, Cat #109-135-098) was added and were incubated at 4° C. for 30 min, washed twice with PBS and resuspended in 300 μl PBS. In FIG. 2, NC represents negative control (PBS), a-hlg-APC represents secondary antibody only, the other panels represent results obtained with each of the corresponding clone, respectively.

[2] = target: T2, hOX40-EGFP on HEK293 cells (human, UniProt P43489 29-277); test: FACS dot plot on OX40-EGFP HEK293 cells, anti-human Ig-APC secondary
T2 construct: EGFP fusion expressed on transfected HEK293 cells; also called human OX40
T2 sequence (looked up): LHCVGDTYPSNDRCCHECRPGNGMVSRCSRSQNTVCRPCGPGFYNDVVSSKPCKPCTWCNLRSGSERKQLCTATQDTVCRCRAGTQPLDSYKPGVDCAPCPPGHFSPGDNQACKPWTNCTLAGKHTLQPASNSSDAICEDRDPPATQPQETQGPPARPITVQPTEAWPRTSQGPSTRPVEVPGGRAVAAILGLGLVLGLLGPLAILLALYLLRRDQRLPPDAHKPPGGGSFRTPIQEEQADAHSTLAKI
Procedure: as §1

[3] = target: T3, hCD137-EGFP on HEK293 cells (human, UniProt Q07011 24-255); test: FACS dot plot on CD137-EGFP HEK293 cells, anti-human Ig-APC secondary
T3 construct: EGFP fusion expressed on transfected HEK293 cells; also called human CD137
Procedure: as §1

hCD27-muFc [4] = target: T4, hCD27-muFc (human; mouse, UniProt P26842 20-192); test: ELISA, plate coated with hCD27-muFc, Test 1
T4 construct: range 1-192; Secreted from HEK293, Protein A purified; not shown: mouse IgG1-Fc (muFc), residues 98 to 324 of UniProt P01868
T4 sequence (looked up): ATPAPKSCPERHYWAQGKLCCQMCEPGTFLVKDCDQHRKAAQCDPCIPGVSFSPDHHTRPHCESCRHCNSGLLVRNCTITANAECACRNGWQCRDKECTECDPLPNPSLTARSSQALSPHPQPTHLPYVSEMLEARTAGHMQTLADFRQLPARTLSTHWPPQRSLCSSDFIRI
Procedure: (§2) The ELISA plate was coated with 2 μg/ml hCD27-muFc, 100 μl/well and incubated at 4° C. overnight. Then it was washed once with 10 mM, pH 7.4 PBS/Tween (0.05%), blocked with PBST containing 5% skimmed milk powder and incubated at 37° C. for 2 h. After washing the plate for 4 times, the humanized antibodies were added and incubated at 37° C. for 40 min, then it was washed for 4 times. Anti-human IgG-HRP-conjugated secondary antibody (Sigma, Cat #A0170-1M) was added and incubated at 37° C. for 40 min. After washing, the plate was developed with TMB substrate and spectrophotometric analysis was performed at OD₄₅₀. In FIGS. 5A-5B, each curve represents the binding result obtained for one of the humanized antibodies. From the results, it can be seen that all these humanized antibodies could bind to human CD27.

hCD27-muFc [5] = target: T4, hCD27-muFc; test: ELISA, plate coated with hCD27-muFc, Test 2
Procedure: as §2

hCD27-muFc [6] = target: T4, hCD27-muFc; test: BLI (Octet K2), antibody on Protein A biosensor, hCD27-muFc in solution
Procedure: Using the BLI method, each humanized antibody was immobilized on a Protein A biosensor at a concentration of 10 μg/ml, while hCD27-muFc was subjected to 2-fold serial dilution, starting from 100 nM, to obtain 5 gradient dilutions for each antibody. The reaction plate was placed on the Octet K2 instrument. The parameters were set to Baseline 70 s, Association 80 s, Dissociation 300 s, Baseline 260 s, Loading 40 s, and Custom 5 s.

[7] = target: T5, hCD27-EGFP on HEK293 cells (human, UniProt P26842 20-260); test: FACS titration on CD27-EGFP HEK293 cells, 8 three-fold dilutions from 20 µg/ml, anti-human Ig-APC secondary, MFI; table drawn under the plot, unit from the x axis; no upper plateau reached
T5 construct: EGFP fusion expressed on transfected HEK293 cells; also called CD27-EGFP cells; cell surface CD27
T5 sequence (looked up): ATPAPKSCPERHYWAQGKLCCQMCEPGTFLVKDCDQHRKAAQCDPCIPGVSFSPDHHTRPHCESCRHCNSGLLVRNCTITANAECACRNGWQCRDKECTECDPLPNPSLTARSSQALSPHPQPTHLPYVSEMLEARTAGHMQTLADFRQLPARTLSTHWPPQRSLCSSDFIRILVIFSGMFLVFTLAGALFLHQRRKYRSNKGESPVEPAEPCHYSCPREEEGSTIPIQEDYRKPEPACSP
Procedure: Based on the above results of ELISA, 7 humanized antibodies were selected to examine their affinities to cell surface CD27. Briefly, 5×10⁵ CD27-EGFP cells prepared in Example 1 were washed twice in PBS, each of the humanized antibodies (d16647, d12996, d9419, 14822, 9424, d14822, d12674) was added. The antibodies were subjected to 3-fold serial dilution, starting from 20 μg/ml, to obtain 8 gradient dilutions for each antibody. The antibodies and the cells were incubated at 4° C. for 30 min. Then, it was washed twice with PBS, anti-human Ig-APC (Jackson ImmunoResearch Laboratories, Cat #109-135-098) was added, and incubated at 4° C. for 30 min, washed twice with PBS and resuspended in 300 μl PBS. Flow cytometry was then performed, and the results are shown in FIG. 6. m2F11 was used as a control.

[8] = target: T2, hOX40-EGFP on HEK293 cells; test: FACS on hOX40-EGFP HEK293 cells
Procedure: as §1

[9] = target: T3, hCD137-EGFP on HEK293 cells; test: FACS on hCD137-EGFP HEK293 cells
Procedure: as §1

[10] = target: T5, hCD27-EGFP on HEK293 cells; test: FACS on CD27-EGFP HEK293 cells, 10 µg/ml antibody
Procedure: 5×10⁵ CD27-EGFP cells prepared in Example 1 were washed twice in PBS, 10 μg/ml of each chimeric antibody prepared in Example 3 (m2E7, m2B8, m4H3, m3E7, m1A8, m4G1, m2G3, m2F11 and m3B8) was added to the cells and incubated at 4° C. for 30 min. Then it was washed twice in PBS, anti-human Ig-APC (Jackson ImmunoResearch Laboratories, Cat #109-135-098) was added, incubated at 4° C. for 30 min, washed twice with PBS and resuspended in 300 μl PBS. In FIG. 1, NC represents negative control (PBS), a-hlg-APC represents secondary antibody only, the other panels represent results obtained with each of the corresponding clone, respectively.

T3 sequence (Q07011 24-255): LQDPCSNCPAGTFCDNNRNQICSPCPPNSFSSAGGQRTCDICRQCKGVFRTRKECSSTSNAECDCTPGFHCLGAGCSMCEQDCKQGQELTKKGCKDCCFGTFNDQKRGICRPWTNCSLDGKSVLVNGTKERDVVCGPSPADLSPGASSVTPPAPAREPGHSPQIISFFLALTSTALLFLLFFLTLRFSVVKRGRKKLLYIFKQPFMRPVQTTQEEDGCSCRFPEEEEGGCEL

- binding result [1]: no binding (tested: 10 µg/ml)
- binding result [2]: no binding (tested: 10 µg/ml)
- binding result [3]: no binding (tested: 10 µg/ml)
B4: m2E7 (antibody, human IgG1, V domains shown)
VH: EVQLQESGPELKKPGETVKISCKASGYTFTTYGMSWVKQAPGKGLQWMGWINTNSGVPTYVEDFKGRFAFSLESSANTAYLQINNLKNEDTAIYFCTREGDALDYWGQGTSVTVSS
VL: DIVMTQSTAIMSASPGEKVTMTCSASSSVSYMHWYQQKSGTSPRRWIYDTSRLASGVPARFSGSGSGTSYSLTISSMEAEDAATYYCQQWSNTPPFTFGAGTKLELK
notes: also called clone 2E7; not shown: human IgG1 constant region, UniProt P01857

- binding result [1]: no binding (tested: 10 µg/ml)
- binding result [8]: no binding (tested: 10 µg/ml)
- binding result [9]: no binding (tested: 10 µg/ml)
- binding result [10]: binds
B5: m3E7 (antibody, human IgG1, V domains shown)
VH: QIQLVQSGPELKKPGETVKISCKASGYTFTTYGMSWVKQAPGKGLHWMGWINTHSGAPTYVDDFKGRFAFSLETSASTAFLQINNLINEDTATYFCAREGDALDYWGQGTSVTVSS
VL: B4 VL with S7T, S14F, R44K, R52K, A59V, S76N, N92R, T93N
notes: Chimeric antibody: mouse VH/VL on human IgG1 / human kappa constant regions; also called clone 3E7; not shown: human IgG1 constant region, UniProt P01857

- binding result [1]: no binding (tested: 10 µg/ml)
- binding result [8]: no binding (tested: 10 µg/ml)
- binding result [9]: no binding (tested: 10 µg/ml)
B6: m4H3 (antibody, human IgG1, V domains shown)
VH: QVQLQQSGPELVKPGASVKISCKASGYSFTAYNINWVKQTNGKSLEWIGIINPNYGTTSYNQKFKGKATLTVDQSSSTAYMQLNSLTSEDSAVYYCARRNGDYVGYAMDSWGQGTSVTVSS
VL: DIVLTQSPAILSVSPGERVSFSCRASQSIGTSMHWYQQRKNGSPRLLIKYASESISGIPSRFSGSGSGTDFTLSINSVESEDIADYYCQQTNNWPWTFGGGTKLEFK
notes: Chimeric antibody: mouse VH/VL on human IgG1 / human kappa constant regions; also called clone 4H3; not shown: human IgG1 constant region, UniProt P01857

Continued, binder first:

B1: m3B8 (antibody, human IgG1, V domains shown)
VH: QVQLQESGPGLVAPSQSLSITCTVSGFSLTNYAVSWVRQPPGKGLEWLGVIWGDGTTNYHSALISRLIISKDNSKSQVFLKLNSLQTDDTATYYCAKEGDYGDYVGWFAYWGQGTLVTVSA
VL: DIVLTQSPASLAVSLGQRATISCRASESVEYYGTSLMQWYQQKPGQPPKLLIYAASNVESGVPARFSGSGSGTDFSLNIHPVEEDDFAMYFCQQSRKIPYTFGGGTKLEIK
notes: Chimeric antibody: mouse VH/VL on human IgG1 / human kappa constant regions; also called clone 3B8; not shown: human IgG1 constant region, UniProt P01857
- binding result [1]: no binding (tested: 10 µg/ml)
- binding result [2]: no binding (tested: 10 µg/ml)
- binding result [3]: no binding (tested: 10 µg/ml)

B2: m2F11 (antibody, human IgG1, V domains shown)
VH: EVQLQESGGDLVKPGGSLKLSCAASGFTFSSYAMSWVRQTPEKRLEWVAIIGDGDTYTYYPDSVKGRFTVSRDNAKNNLYLQMSHLKSEDTAMYYCVRTRGGPFDYWGQGTTLTVSS
VL: DIVLTQTPALMSASPGEKVTMTCSASSSVGSMHWYQQKSGTSPKRWIYDTSKLASGVPARFSGSGSGTSYSLTISSMEAEDAATYYCQQWSSIPPTFGAGTTLELK
notes: Chimeric antibody: mouse VH/VL on human IgG1 / human kappa constant regions; Parent of the humanized antibodies; also called clone 2F11; not shown: human IgG1 constant region, UniProt P01857
- binding result [1]: no binding (tested: 10 µg/ml)
- EC50 (hCD27-muFc [4]): 0.0315 µg/mL
- EC50 (hCD27-muFc [5]): 0.0279 µg/mL
- Kd (hCD27-muFc [6]): 0.835 nM
- koff (hCD27-muFc [6]): 0.000108 s⁻¹
- kon (hCD27-muFc [6]): 130000 M⁻¹ s⁻¹
- binding result [2]: no binding (tested: 10 µg/ml)
- binding result [3]: no binding (tested: 10 µg/ml)
- LogEC50 [7]: 0.417 Log10(ug/ml)

B3: m2G3 (antibody, human IgG1, V domains shown)
VH: EVKLQESGGGLVKPGGSLKLSCAASGFTFSSFAMSWIRQTPEKRLEWVAAISDGGTYTYYPNNVKGRFTISRDDAKNNLYLQMSHLKSEDTAMYYCVRNRGGPFDYWGQGTTLTVSS
VL: B2 VL with T7S, L10I, G30S, S31Y, H33N, A59V, S91N, I93N, T102K
notes: Chimeric antibody: mouse VH/VL on human IgG1 / human kappa constant regions; also called clone 2G3; not shown: human IgG1 constant region, UniProt P01857
- binding result [1]: no binding (tested: 10 µg/ml)
- binding result [2]: no binding (tested: 10 µg/ml)
- binding result [3]: no binding (tested: 10 µg/ml)
